Laboratory results: US20230374147A1 (HUMMINGBIRD BIOSCIENCE PTE, published 2023)

Experiments:
[1] = biological target: T1, Cyno TACI-His (Sino Biological, 90976-C08H) (cynomolgus macaque, UniProt G7PTR7 1-165); experiment: ELISA, coated Cyno TACI-His
T1 construct: Bought protein; also called cynomolgous macaque TACI; CyTACI
T1 sequence: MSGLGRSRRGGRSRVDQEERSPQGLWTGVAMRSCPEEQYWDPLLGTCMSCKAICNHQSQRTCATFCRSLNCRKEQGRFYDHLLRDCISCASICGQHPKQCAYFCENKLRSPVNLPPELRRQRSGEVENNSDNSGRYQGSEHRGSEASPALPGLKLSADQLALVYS

[2] = biological target: T2, His-tagged cynomolgous macaque BCMA (Acro Biosystems, BCA-C52H7) (cynomolgus macaque, UniProt Q02223 1-54 (human entry)); experiment: ELISA, coated Cyno BCMA-His
T2 construct: Bought protein; also called cyno BCMA; CyBCMA; not shown: His tag

[3] = biological target: T3, Human BCMA-His (Sino Biological, 10620-H08H) (human, UniProt Q02223 1-54); experiment: ELISA, coated Human BCMA-His
T3 construct: not shown: His tag
T3 sequence: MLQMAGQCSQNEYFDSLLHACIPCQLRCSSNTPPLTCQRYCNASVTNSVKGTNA

[4] = biological target: T4, Human HER3-His (Sino Biological, 10201-H08H) (human, UniProt P21860 20-643); experiment: ELISA, coated Human HER3-His
T4 construct: Specificity control; also called Human HERS-His

[5] = biological target: T5, His-tagged human BCMA (Acro Biosystems, Cat. #BCA-H522y) (human, UniProt Q02223 1-54); experiment: ELISA, coated His-tagged human BCMA
T5 construct: also called huBCMA; P1; not shown: His tag
T5 sequence: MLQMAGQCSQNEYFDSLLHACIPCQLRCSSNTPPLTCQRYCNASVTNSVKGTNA

[6] = biological target: T5, His-tagged human BCMA (Acro Biosystems, …); experiment: ELISA, coated His-tagged human BCMA; remark: listed apart in the source
[7] = biological target: T6, human BCMA expressed on cells (human, UniProt Q02223 1-184); experiment: flow cytometry, H929 cells (BCMA+)
T6 construct: the cell line is named under assay; also called wildtype human BCMA
T6 sequence: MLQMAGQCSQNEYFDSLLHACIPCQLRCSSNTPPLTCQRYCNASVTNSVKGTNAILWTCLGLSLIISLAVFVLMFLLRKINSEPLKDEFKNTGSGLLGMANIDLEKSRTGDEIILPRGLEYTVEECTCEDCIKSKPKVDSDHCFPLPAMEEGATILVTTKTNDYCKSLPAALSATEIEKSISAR

BCMA Mut = biological target: T7, BCMA Mut (human, UniProt Q02223 1-184); experiment: flow cytometry on HEK293T cells expressing BCMA Mut
T7 construct: Expressed on HEK293T cells; also called human BCMA comprising the substitutions Y13A, D15A, L17G and L18G
T7 chain: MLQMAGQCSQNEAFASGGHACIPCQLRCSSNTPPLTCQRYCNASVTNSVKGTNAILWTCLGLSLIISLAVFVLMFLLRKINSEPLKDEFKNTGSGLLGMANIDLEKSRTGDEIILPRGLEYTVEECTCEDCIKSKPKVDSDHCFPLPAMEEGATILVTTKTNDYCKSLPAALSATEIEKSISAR

[8] = biological target: T5, His-tagged human BCMA (Acro Biosystems, …); experiment: BLI, His-tagged human BCMA on HIS1K tip
[9] = biological target: T8, His-tagged mouse BCMA (Acro Biosystems, BCA-M52H3) (mouse, UniProt O88472 1-49); experiment: BLI, His-tagged mouse BCMA on HIS1K tip
T8 construct: Bought protein; not shown: His tag
T8 chain: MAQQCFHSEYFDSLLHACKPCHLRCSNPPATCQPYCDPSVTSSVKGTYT

[10] = biological target: T2, His-tagged cynomolgous macaque BCMA …; experiment: BLI, His-tagged cynomolgus BCMA on HIS1K tip
[11] = biological target: T6, human BCMA expressed on cells; experiment: flow cytometry, H929 cells (BCMA-expressing)
[12] = biological target: T5, His-tagged human BCMA (Acro Biosystems, …); experiment: BLI, His-tagged human BCMA on HIS1K tip; R2 0.9957
[13] = biological target: T2, His-tagged cynomolgous macaque BCMA …; experiment: BLI, His-tagged cynomolgus BCMA on HIS1K tip; R2 0.9963
[14] = biological target: T5, His-tagged human BCMA (Acro Biosystems, …); experiment: BLI, His-tagged human BCMA on HIS1K tip, no APRIL; R2 0.9957
[15] = biological target: T9, cynomolgous macaque BCMA expressed on CHOK1 cells; experiment: flow cytometry, CHOK1 cells transiently expressing cynomolgus BCMA
T9 construct: also called cyno BCMA on cells

[16] = biological target: T6, human BCMA expressed on cells; experiment: flow cytometry, fixed RPMI 8226 cells (BCMA+, TACI+: the cells carry both targets)
[17] = biological target: T5, His-tagged human BCMA (Acro Biosystems, …); experiment: competition ELISA: His-tagged human BCMA binding to coated APRIL-Fc in the presence of the antibody
[18] = biological target: T5, His-tagged human BCMA (Acro Biosystems, …); experiment: as above; remark: listed apart in the source

B1: J6M0 (antibody, V domains shown)
VH: QVQLVQSGAEVKKPGSSVKVSCKASGGTFSNYWMHWVRQAPGQGLEWMGATYRGHSDTYYNQKFKGRVTITADKSTSTAYMELSSLRSEDTAVYYCARGAIYDGYDVLDNWGQGTLVTVSS
VL: DIQMTQSPSSLSASVGDRVTITCSASQDISNYLNWYQQKPGKAPKLLIYYTSNLHSGVPSRFSGSGSGTDFTLTISSLQPEDFATYYCQQYRKLPWTFGQGTKLEIK
notes: also called J6M0-hIgG1; anti-BCMA
[1]
  binding result: no binding (tested: log M about -7.7 (3 ug/ml per paragraph 742))
[2]
  EC50: 0.015 nM
[3]
  EC50: 0.018 nM
[4]
  binding result: no binding (tested: log M about -7.7 (3 ug/ml per paragraph 742))
[5]
  EC50 (read off the curve): ~0.007 µg/mL
[6]
  EC50: 0.044 nM
[7]
  EC50: 1.77 nM
BCMA Mut
  binding result: binds
[8]
  Human BCMA response: 2.53
[9]
  Mouse BCMA response: 0.0423
[10]
  Cyno BCMA response: 2.16
[11]
  EC50 (read off the curve): ~1 µg/mL
[12]
  Kd: < 0.001 nM
[13]
  Kd: < 0.001 nM
[14]
  Kd: < 0.001 nM
[15]
  binding result: binds
[16]
  EC50: ~9.61 nM
[17]
  IC50 (read off the curve): ~0.5 µg/mL
[18]
  IC50: 0.92 nM
